Measured values taken from paper PMC10432269, “Diverse modes of H3K36me3-guided nucleosomal deacetylation by Rpd3S” (Nature, 2023).
No end group written: not given here.

T1: unmodified histone H3 residues 1–10 peptide
T1 construct: Histone H3 residues 1-10, unmodified; also called H3_(1–10); H3un; source: synthetic peptide
T1 peptide: ARTKQTARKS


How the values were obtained:
[1] = biological target: T1, unmodified histone H3 residues 1–10 …; assay: ITC; 25 °C, MicroCal PEAQ-ITC; 20 mM Tris 7.5, 50 mM NaCl, 5% glycerol; one set of binding sites model; conditions: both partners purified
[2] = biological target: the molecule itself; assay: cryo-EM structure; free Rpd3S complex, subunits co-expressed in Sf9 and purified together; stabilised by GraFix (glycerol gradient with 0.15% glutaraldehyde); 3.2 Å overall, local maps 2.7 Å and 3.2 Å

Row | Kd [1] [µM] | Binder | binding result [2]
1 | ~39 | EDFCSACNQSGSFLCCDTCPKSFHFLCLDPPIDPNNLPKGDWHCNECKFK (domain or fragment, cysteine pairing not given here; also: Zn2+ bound) [PHD1 domain of Rco1] | 
2 |  | Rco1 (natural protein, S. cerevisiae, UniProt Q04779 1-684, looked up, Rco1, S. cerevisiae, full length; residues 107-565 (Rco1-A) and 262-358 (Rco1-B) are modelled in the structure; The complex was captured on strep beads by the Strep-tag of Rco1; the tag was then cleaved with TEV protease before anion exchange and SEC; Two copies (Rco1-A, Rco1-B) stand in the Rpd3S complex; also called Rco1-A; Rco1-B; not shown: Strep-tag, N-terminal, cleaved) MDTSKKDTTRSPSHSNSSSPSSSSLSSSSSKEKKRPKRLSSQNVNYDLKRRKIITSEGIERSFKNEHSNLAVEDNIPEEEPKELLEKDSKGNIIKLNEPSTISEDSKVSVTGLPLNKGPSEKIKRESLWNYRKNLGGQSNNSEMTLVPSKRFTQVPKNFQDLNRNDLKTFLTENMTEESNIRSTIGWNGDIINRTRDREPESDRDNKKLSNIRTKIILSTNATYDSKSKLFGQNSIKSTSNASEKIFRDKNNSTIDFENEDFCSACNQSGSFLCCDTCPKSFHFLCLDPPIDPNNLPKGDWHCNECKFKIFINNSMATLKKIESNFIKQNNNVKIFAKLLFNIDSHNPKQFQLPNYIKETFPAVKTGSRGQYSDENDKIPLTDRQLFNTSYGQSITKLDSYNPDTHIDSNSGKFLICYKCNQTRLGSWSHPENSRLIMTCDYCQTPWHLDCVPRASFKNLGSKWKCPLHSPTKVYKKIHHCQEDNSVNYKVWKKQRLINKKNQLYYEPLQKIGYQNNGNIQIIPTTSHTDYDFNQDFKITQIDENSIKYDFFDKIYKSKMVQKRKLFQFQESLIDKLVSNGSQNGNSEDNMVKDIASLIYFQVSNNDKSSNNKSASKSNNLRKLWDLKELTNVVVPNELDSIQFNDFSSDEIKHLLYLKKIIESKPKEELLKFLNIENPENQSE | binds
